Measured values as given in patent US20250355001A1, “METHOD FOR DETECTING A TAU PROTEIN FRAGMENT IN A SAMPLE” (GTINVENT LIMITED, priority 2022, published 2025).

Tests used:
[1] = target: T1, hT40 (Homo sapiens, UniProt P10636); test: Sandwich ELISA limits of detection (LoD) of antibody pairs; type: binding; settings: S1D12 mAb capture; hT40
T1 construct: Full length tau (hT40)
From the text: The diverse panel of high affinity anti-tau antibodies (scAb and mAb formats) were paired in various combinations and tested in a Sandwich (or Capture) ELISA format to calculate their limits of detection (LoD) and their ability to differentiate between different tau species. Biologically, tau exists in 6 different isoforms and is subjected to numerous post translational modifications, some of them playing a significant role in the progression of neurodegeneration.
For Sandwich ELISA using colourimetric detection, 96 well Maxisorp plates were coated with the capture antibody S1D12 mAb at 1 μg/ml for 1 h at RT followed by blocking with 2% MPBS as normal. Full length tau (hT40), at 1 μg/ml starting concentration was added to designated wells and double diluted across rest of the plates and left to incubate at R/T for 1 h. A series of detection scAbs with varying epitope recognition properties were added at 10 μg/ml to designated wells (FIG. 22). For colourimetric detection HRP conjugated anti-HuCk secondary antibody was used and the resulting immunoreaction was developed and absorbance at 450 nm measured as described previously. Cut-off point for a positive binding event was an absorbance value of 0.3 following background subtraction. In order to enhance the assay sensitivity, a chemiluminescent detection method was adopted where 50 μL SuperSignal ELISA Femto Substrate (Thermo Scientific) was added to each well following incubation with anti-HuCK HRP antibody and subsequent washing. The luminescence was read using Clariostar Plus microplate reader. A further modification to this protocol was done where various detection scAbs were directly conjugated with HRP and detected using chemiluminescent protocol as before. The lowest levels of detection achieved using different detection scAbs and a comparison of colourimetric and chemiluminescent methods of detection are shown in Table 28
Similarly, a sandwich ELISA format was set up using S1G2 mAb at 1 μg/ml as the capture antibody and HRP conjugated S1D12 mAb for detection. The assay was conducted using chemiluminescent protocol described above.

[2] = target: dGAE aggregates (Homo sapiens, UniProt P10636); test: Sandwich ELISA on SDS/Triton X-100 treated dGAE aggregates; type: binding; set-up: key to LoD, 423 mAb capture, Untreated dGAE agg. / LoD, Direct immobilisation of dGAE aggregates, Untreated dGAE agg.: NB denotes no binding; settings: untreated aggregates
Sequence of dGAE aggregates (P10636 614-708): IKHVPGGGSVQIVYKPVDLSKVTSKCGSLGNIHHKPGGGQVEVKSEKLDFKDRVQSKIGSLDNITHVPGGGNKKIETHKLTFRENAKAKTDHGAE
Method: We have noticed Sodium dodecyl sulphate (SDS) can break apart dGA/dGAE aggregates and separate them into smaller fragments by performing an SDS-PAGE. This has been replicated and tested using an ELISA as described below.
For aggregation, 1000 μL 100 μM dGAE+10 μL 10 mM DTT was added to a ‘LoBind’ microfuge tubes and agitated at 700 RPM/37° C. for 24 hours. Resulting sample centrifuged at 17,000×g/4° C. for 60 min and supernatant discarded to remove left over monomer. Pellet resuspended in half the original volume for future experiments and hereafter referred to as ‘aggregates’. 1 μl of aggregates was added to 1 ml of PBS and SDS was added to a final concentration of 1% (w/v). This was left to incubate on lab bench for 1 h with gentle agitation every 15 minutes. In order to neutralize the SDS effect on ELISA, Triton X-100 added to a final concentration of 3% (v/v) and mixed gently by pipetting to prevent any bubble formation. 200 μl added of this mix was to the first well of an ELISA plate coated with 1 μg/ml S1D12 mAb and blocked with 2% MPBS. Similarly aggregates treated with only SDS or Triton X-100, untreated aggregates, dGAE monomers treated with only SDS or SDS+Titon X-100 were also added to designated wells as controls. All samples were then double diluted across the plate in final volumes of 100 μl. The final column was left with no protein to act as a blank. This was allowed to stand at room temperature for 1 hour followed by the addition of detection scAb-S1G2 at 10 μg/ml. Anti-HuCk HRP labelled secondary antibody was added as described previously and ELISA data generated was represented using the graph below.

T1 sequence (P10636 1-441 isoform P10636-8): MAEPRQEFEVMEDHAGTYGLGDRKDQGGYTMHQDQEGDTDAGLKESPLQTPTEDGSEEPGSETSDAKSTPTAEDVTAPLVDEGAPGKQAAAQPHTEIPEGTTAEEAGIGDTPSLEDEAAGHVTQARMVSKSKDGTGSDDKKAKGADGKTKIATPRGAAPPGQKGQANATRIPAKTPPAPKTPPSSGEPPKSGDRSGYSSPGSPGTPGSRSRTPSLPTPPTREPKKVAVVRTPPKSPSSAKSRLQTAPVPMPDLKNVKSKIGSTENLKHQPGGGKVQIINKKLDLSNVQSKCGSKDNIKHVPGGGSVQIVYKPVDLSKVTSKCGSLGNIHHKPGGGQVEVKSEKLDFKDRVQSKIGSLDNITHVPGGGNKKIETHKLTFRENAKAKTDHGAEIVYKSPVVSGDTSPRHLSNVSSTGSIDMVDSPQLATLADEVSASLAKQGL

B1: S1G2: sheep-derived anti-tau core clone; scFv SEQ ID NO: 81, VH 455, VL 456 (protein)
scFv: QVQLQESGPSLVKPSQTLSLTCTVSGFSLTSNSVGWVRQAPGKAPEWVAGIDTDGEEGYNPALNSRLSITRDTSKSQVSLSLSSVTSEDTAVYYCGRSYRADGLAYGYVQAIDYWGPGLLVTVSSEGKSSGASGESKVDDQAVVTQPSSVSGSLGQRVSITCSGSFIGISSVGWFQQLPGSGLRTIIVASDGRPSGVPDRFSMSKSGNTATLTISSLQAEDEADYFCGSSDRTPYTGVFGSGTRLTVLG
modifications: S1G2 amino acid sequence
[1]
  LoD (ng/ml) direct HRP conjugation of detection scAb & chemiluminescence: 0.04 ng/mL
[2]; direct immobilisation
  LoD, Direct immobilisation of dGAE aggregates, Untreated dGAE agg.: NB
[2]; sandwich ELISA, 423 mAb capture
  LoD, 423 mAb capture, Untreated dGAE agg.: NB
[2]; sandwich ELISA, S1D12 mAb capture
  LoD, S1D12 mAb capture, Untreated dGAE agg.: 250 ng/mL
